Laboratory results reported in paper PMC11820115.

Target: GFP1-10 tagged with MCP, with nuclear localization sequences
Assay: P3 editing (protein-protein proximity joins crRNA-MS2 and BoxB-petracrRNA; prime editing read by amplicon sequencing); HEK293T cells; 12 designs of crRNA-MS2/BoxB-petracrRNA that vary the upper 4 bp of the Cas9-binding region of the repeat:anti-repeat duplex; tagged split-GFP against standard untagged GFP as background; normalized to the eCTT control

In the case of “GFP11 tagged with LambdaN, with nuclear localization sequences (peptide)”, the normalized editing efficiency (GAUA:UAUC design) is reported as 3.8%.
